Data as given in the RNAGym collection of RNA variant scans (doi:10.1093/molbev/msab373).

B1: Azoarcus group I ribozyme (parent)
chain: GUGCCUUGCGCCGGGAAACCACGCAAGGGAUGGUGUCAAAUUCGGCGAAACCUAAGCGCCCGCCCGGGCGUAUGGCAACGCCGAGCCAAGCUUCGGCGCCUGCGCCGAUGAAGGUGUAGAGACUAGACGGCACCCACCUAAGGCAAACGCUAUGGUGAAGGCAUAGUCCAGGGAGUGGCGAAAGUCACACAAACCGG

Variants of: B1
Test: reverse-splicing fitness (ratio to wild type); higher = more active; in vitro selection; Mg2+ level not given
In short: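 An in vitro group I ribozyme library with randomized positions was T7-transcribed and gel-purified. In triplicate, 10 pmol RNA in EPPS pH 7.5 was reacted with 50 pmoles of a 30-nt RNA substrate for 1 h at 37 °C across several added MgCl2 levels (1–48 mM), then stopped with EDTA. Products were reverse transcribed from a substrate-complementary primer, PCR-amplified and sequenced (HiSeq 4000). Fitness is a variant's read proportion after selection over that before, normalised to wild type.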

Question: For GUGCCUUGCGCCGGGAAACCACGCAAGGGAUGGUGUCAAAUUCGGCGAAACCUAAGCGCCCGCCCGGGCGUAUGGCAACGCAGAGCCAAGCUUCGGCGCCUGCGCCGAUGAAGGUGUAGCGACUAGACGGCACCCACCUAAGGCAAACGAUAUGGUGAAGGCAUAGUCUAGGGAGUGGCGAAAGUCACACAAACCGG, which reverse-splicing fitness is on record?
Answer: 0.0147

Question: For GUGCCUUGCGCCGGGAAACCACGCAAGGGAUGGUGUCAAAUUCGGCGAAACCUAAGCGCCCGCCCGGGCGUAUGGCAACGCAGAGCCAAGCUUCGGCGCCUGCGCCGAUGAAGGUGUAGCGACUAGACGGCACCCACCUAAGGCAAACGAUAUGGUGAAGGCAUAGUCGAGGGAGUGGCGAAAGUCACACAAACCGG, which reverse-splicing fitness is on record?
Answer: 0.0106

Question: For GUGCCUUGCGCCGGGAAACCACGCAAGGGAUGGUGUCAAAUUCGGCGAAACCUAAGCGCCCGCCCGGGCGUAUGGCAACGCAGAGCCAAGCUUCGGCGCCUGCGCCGAUGAAGGUGUAGCGACUAGACGGCACCCACCUAAGGCAAACGAUAUGGUGAAGGCAUAGUCAAGGGAGUGGCGAAAGUCACACAAACCGG, which reverse-splicing fitness is on record?
Answer: 0.0115

Question: For GUGCCUUGCGCCGGGAAACCACGCAAGGGAUGGUGUCAAAUUCGGCGAAACCUAAGCGCCCGCCCGGGCGUAUGGCAACGCAGAGCCAAGCUUCGGCGCCUGCGCCGAUGAAGGUGUAGCGACUAGACGGCACCCACCUAAGGCAAACGAUAUGGUGAAGGCAUAGUCCAGGGAGUGGCGAAAGUCACACAAACCGG, which reverse-splicing fitness is on record?
Answer: 0.0224

Question: Which reverse-splicing fitness does the source give for GUGCCUUGCGCCGGGAAACCACGCAAGGGAUGGUGUCAAAUUCGGCGAAACCUAAGCGCCCGCCCGGGCGUAUGGCAACGCAGAGCCAAGCUUCGGCGCCUGCGCCGAUGAAGGUGUAGCGACUAGACGGCACCCACCUAAGGCUAACGCUAUGGUGAAGGCAUAGUCCAGGGAGCGGCGAAAGUCACACAAACCGG here?
Answer: 0.0639

Question: For GUGCCUUGCGCCGGGAAACCACGCAAGGGAUGGUGUCAAAUUCGGCGAAACCUAAGCGCCCGCCCGGGCGUAUGGCAACGCAGAGCCAAGCUUCGGCGCCUGCGCCGAUGAAGGUGUAGCGACUAGACGGCACCCACCUAAGGCUAACGCUAUGGUGAAGGCAUAGUCCAGGGAGAGGCGAAAGUCACACAAACCGG, which reverse-splicing fitness is on record?
Answer: 0.0383

Question: With GUGCCUUGCGCCGGGAAACCACGCAAGGGAUGGUGUCAAAUUCGGCGAAACCUAAGCGCCCGCCCGGGCGUAUGGCAACGCAGAGCCAAGCUUCGGCGCCUGCGCCGAUGAAGGUGUAGCGACUAGACGGCACCCACCUAAGGCUAACGCUAUGGUGAAGGCAUAGUCCAGGGAGGGGCGAAAGUCACACAAACCGG as the variant, how does the reverse-splicing fitness read?
Answer: 0.00885

Question: For GUGCCUUGCGCCGGGAAACCACGCAAGGGAUGGUGUCAAAUUCGGCGAAACCUAAGCGCCCGCCCGGGCGUAUGGCAACGCAGAGCCAAGCUUCGGCGCCUGCGCCGAUGAAGGUGUAGCGACUAGACGGCACCCACCUAAGGCAAACGAUAUGGUGAAGGCAUAGUCAAGGGAGCGGCGAAAGUCACACAAACCGG, which reverse-splicing fitness is on record?
Answer: 0.0227

Question: Which reverse-splicing fitness does the source give for GUGCCUUGCGCCGGGAAACCACGCAAGGGAUGGUGUCAAAUUCGGCGAAACCUAAGCGCCCGCCCGGGCGUAUGGCAACGCAGAGCCAAGCUUCGGCGCCUGCGCCGAUGAAGGUGUAGCGACUAGACGGCACCCACCUAAGGCAAACGAUAUGGUGAAGGCAUAGUCAAGGGAGGGGCGAAAGUCACACAAACCGG here?
Answer: 0.00801

Question: With GUGCCUUGCGCCGGGAAACCACGCAAGGGAUGGUGUCAAAUUCGGCGAAACCUAAGCGCCCGCCCGGGCGUAUGGCAACGCAGAGCCAAGCUUCGGCGCCUGCGCCGAUGAAGGUGUAGCGACUAGACGGCACCCACCUAAGGCAAACGAUAUGGUGAAGGCAUAGUCAAGGGAGAGGCGAAAGUCACACAAACCGG as the variant, how does the reverse-splicing fitness read?
Answer: 0.0213

Question: Which reverse-splicing fitness does the source give for GUGCCUUGCGCCGGGAAACCACGCAAGGGAUGGUGUCAAAUUCGGCGAAACCUAAGCGCCCGCCCGGGCGUAUGGCAACGCAGAGCCAAGCUUCGGCGCCUGCGCCGAUGAAGGUGUAGCGACUAGACGGCACCCACCUAAGGCAAACGAUAUGGUGAAGGCAUAGUCGAGGGAGCGGCGAAAGUCACACAAACCGG here?
Answer: 0.0258

Question: Which reverse-splicing fitness does the source give for GUGCCUUGCGCCGGGAAACCACGCAAGGGAUGGUGUCAAAUUCGGCGAAACCUAAGCGCCCGCCCGGGCGUAUGGCAACGCAGAGCCAAGCUUCGGCGCCUGCGCCGAUGAAGGUGUAGCGACUAGACGGCACCCACCUAAGGCAAACGAUAUGGUGAAGGCAUAGUCGAGGGAGAGGCGAAAGUCACACAAACCGG here?
Answer: 0.021

Question: Which reverse-splicing fitness does the source give for GUGCCUUGCGCCGGGAAACCACGCAAGGGAUGGUGUCAAAUUCGGCGAAACCUAAGCGCCCGCCCGGGCGUAUGGCAACGCAGAGCCAAGCUUCGGCGCCUGCGCCGAUGAAGGUGUAGCGACUAGACGGCACCCACCUAAGGCAAACGAUAUGGUGAAGGCAUAGUCGAGGGAGGGGCGAAAGUCACACAAACCGG here?
Answer: 0.00627

Question: With GUGCCUUGCGCCGGGAAACCACGCAAGGGAUGGUGUCAAAUUCGGCGAAACCUAAGCGCCCGCCCGGGCGUAUGGCAACGCAGAGCCAAGCUUCGGCGCCUGCGCCGAUGAAGGUGUAGCGACUAGACGGCACCCACCUAAGGCAAACGAUAUGGUGAAGGCAUAGUCUAGGGAGCGGCGAAAGUCACACAAACCGG as the variant, how does the reverse-splicing fitness read?
Answer: 0.0137

Question: For GUGCCUUGCGCCGGGAAACCACGCAAGGGAUGGUGUCAAAUUCGGCGAAACCUAAGCGCCCGCCCGGGCGUAUGGCAACGCAGAGCCAAGCUUCGGCGCCUGCGCCGAUGAAGGUGUAGCGACUAGACGGCACCCACCUAAGGCAAACGAUAUGGUGAAGGCAUAGUCUAGGGAGAGGCGAAAGUCACACAAACCGG, which reverse-splicing fitness is on record?
Answer: 0.0176
